Experimental data reported in the RNAGym collection of RNA variant scans (doi:10.1073/pnas.2313332121).

B1: TPR t1 (parent)
chain: GACCAAUCUGCCCUCAGAGCUCGAGAACAUCUUCGGAUGCAGAGGAGGCAGGCUUCGGUGGCGCGAUAGCGCCAACGUCCUCAACCUCCAAUGCAUCCCACCACAUGAUGAUGCCUGAAGAGCCUUGGUUUUUUG

Variants of: B1
Assay: polymerase ribozyme fitness, log enrichment relative to wild type (log ratio); higher = more active; in vitro selection for triplet polymerase activity
Procedure, shortened: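 Each subunit of a heterodimeric triplet polymerase ribozyme was mutagenized into a library by PCR, transcribed, and subjected to one round of in vitro selection, run in triplicate. Libraries were annealed with a biotinylated primer, the partner subunit and triplets, incubated frozen at −7 °C, and extended constructs were gel-excised, captured on streptavidin beads and recovered by RT-PCR. Input and output libraries were sequenced on Illumina, keeping genotypes with ≥10 input reads and ≥1 read per output. Fitness is log base 2 of genotype enrichment divided by wild-type enrichment, from inverse-variance-weighted replicate averages.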

Going from A24G U96G C102A to A24U A43C G60C A84U G110C U129A, the “polymerase ribozyme fitness (log ratio)” value falls from -5.25 to -6.86.

First: A24U A83U
Second: A24U A83U C94U A111C G122A
The “polymerase ribozyme fitness (log ratio)” value of the first is lower: -7.24 for the first, -6.94 for the second.

Compared with A24U C34A U59A G63U C80A G113A, A24U C49A C82G U112A U133C is higher in “polymerase ribozyme fitness (log ratio)” value: -7.46 for the first, -4.62 for the second.

First: A24U C49G C64A C104U C123G
Second: A24U C53G C72U C89A C124A
The “polymerase ribozyme fitness (log ratio)” value of the first is higher: -6.64 for the first, -7.6 for the second.

Compared with A24U C72G, A24U G35C C49A G63A A111G C124U G135A is lower in “polymerase ribozyme fitness (log ratio)” value: -5.64 for the first, -6.36 for the second.

First: A24U G61C
Second: A24U G69U
The “polymerase ribozyme fitness (log ratio)” value of the first is lower: -7.27 for the first, -3.76 for the second.

First: A24U U30C G58A G63C A95G G120C
Second: G25A
The “polymerase ribozyme fitness (log ratio)” value of the first is lower: -8.06 for the first, -4.68 for the second.

G25A A43G C72U A111U and G25A A66U C70G G110C are within 0.2 log units of each other in “polymerase ribozyme fitness (log ratio)” value: -6.94 for the first, -6.93 for the second.

Going from G25A A121U to G25A C40U G93C C101U C104G C115U A118G, the “polymerase ribozyme fitness (log ratio)” value falls from -2.9 to -6.52.

Compared with G25A C72G, G25A G60C is lower in “polymerase ribozyme fitness (log ratio)” value: -5.55 for the first, -7.2 for the second.

Compared with G25A G93A, G25C is higher in “polymerase ribozyme fitness (log ratio)” value: -6.22 for the first, -5.94 for the second.

First: G25C A26G C28A C72A G110A
Second: G25C A29G U33C G60A C98U G113C
The “polymerase ribozyme fitness (log ratio)” value of the first is higher: -5.56 for the first, -7.69 for the second.

First: G25C C31G C34U A43C U112C
Second: G25C C53G
The “polymerase ribozyme fitness (log ratio)” value of the first is higher: -6.28 for the first, -6.8 for the second.

Compared with G25C C53U, G25C C70G G107A A111U U129G is lower in “polymerase ribozyme fitness (log ratio)” value: -5.22 for the first, -7.14 for the second.

Compared with G25C G61A, G25C G63U C99A C115A is lower in “polymerase ribozyme fitness (log ratio)” value: -4.35 for the first, -6.39 for the second.

Compared with G25U, G25U A26G C64U is higher in “polymerase ribozyme fitness (log ratio)” value: -5.58 for the first, -2.74 for the second.

Compared with G25U C34U G63C G93C G117C A121C G122A G127U, G25U C56G U81G A121G C124U is higher in “polymerase ribozyme fitness (log ratio)” value: -6.74 for the first, -5.96 for the second.

G25U C56U C72G C123G and G25U C72U are within 0.2 log units of each other in “polymerase ribozyme fitness (log ratio)” value: -6.31 for the first, -6.27 for the second.

Going from G25U C76A G113C to G25U G39U G44U C73A, the “polymerase ribozyme fitness (log ratio)” value falls from -5.51 to -6.92.

A26C and A26C A27C U59A C72U C123A are within 0.2 log units of each other in “polymerase ribozyme fitness (log ratio)” value: -6.07 for the first, -6.08 for the second.

Going from A26C A29G U112G to A26C A43C A46C C56G C86A A90G C123G, the “polymerase ribozyme fitness (log ratio)” value rises from -7.05 to -6.74.

Compared with A26C C34A C56A C94G A111U, A26C G61A U96A is higher in “polymerase ribozyme fitness (log ratio)” value: -7 for the first, -5.9 for the second.

Going from A26C G69C to A26C G69U, the “polymerase ribozyme fitness (log ratio)” value rises from -7.17 to -3.86.

A26C U54G C70A U109G and A26C U92A are within 0.2 log units of each other in “polymerase ribozyme fitness (log ratio)” value: -5.98 for the first, -5.95 for the second.

Compared with A26C U106G, A26G is higher in “polymerase ribozyme fitness (log ratio)” value: -6.98 for the first, -1.67 for the second.

Going from A26G A27U A74G C115U C124U to A26G A43U G69U U112A, the “polymerase ribozyme fitness (log ratio)” value rises from -5.7 to -0.179.

Going from A26G A50G C56G C82G to A26G A84G G120A, the “polymerase ribozyme fitness (log ratio)” value rises from -3.42 to -2.95.

A26G C49U G63A A84C and A26G C53A C56U G93C U96G are within 0.2 log units of each other in “polymerase ribozyme fitness (log ratio)” value: -4.24 for the first, -4.22 for the second.

Going from A26G C53A U81G to A26G C53G G77A, the “polymerase ribozyme fitness (log ratio)” value rises from -3.49 to -2.93.

Compared with A26G C62A C82U, A26G C62U C80G G110C is lower in “polymerase ribozyme fitness (log ratio)” value: -3.78 for the first, -7.8 for the second.

First: A26G C62U U133A
Second: A26G C70U
The “polymerase ribozyme fitness (log ratio)” value of the first is lower: -4.26 for the first, -2.78 for the second.

Going from A26G C73A to A26G C82A G113A A119U G120C, the “polymerase ribozyme fitness (log ratio)” value falls from -1.78 to -3.14.

First: A26G C94G
Second: A26G G36U C72G
The “polymerase ribozyme fitness (log ratio)” value of the first is higher: -3.05 for the first, -4.71 for the second.

A26G G42C and A26G G42C C72A are within 0.2 log units of each other in “polymerase ribozyme fitness (log ratio)” value: -4.99 for the first, -5.15 for the second.

First: A26G G45A G120C
Second: A26G G47A C49G G71U
The “polymerase ribozyme fitness (log ratio)” value of the first is higher: -1.66 for the first, -4.24 for the second.

Going from A26G G48A C49G A121U to A26G G48A G63U C101G, the “polymerase ribozyme fitness (log ratio)” value falls from -0.318 to -4.73.

Going from A26G G51U to A26G G60C, the “polymerase ribozyme fitness (log ratio)” value rises from -5.11 to -3.07.

Going from A26G G60U C97U to A26G G63A C124G, the “polymerase ribozyme fitness (log ratio)” value rises from -2.92 to -0.0451.

Going from A26G G69A A91U U133G to A26G G69U, the “polymerase ribozyme fitness (log ratio)” value rises from -6.73 to -2.23.

Compared with A26G G71A, A26G G71C C79G is lower in “polymerase ribozyme fitness (log ratio)” value: -2.97 for the first, -3.86 for the second.

Compared with A26G G120A, A26G U78C is lower in “polymerase ribozyme fitness (log ratio)” value: -0.696 for the first, -2.25 for the second.

For A26G U109G, the “polymerase ribozyme fitness (log ratio)” value was -6.07.
